Experimental data taken from article PMC3820547, “An Extended Network of Genomic Maintenance in the Archaeon Pyrococcus abyssi Highlights Unexpected Associations between Eucaryotic Homologs” (PLoS ONE, 2013).

Molecular target: T1, Mre11/Rad50 complex (Q9UZC9, Q9UZC8), HIS fusion (Pyrococcus abyssi, UniProt Q9UZC9 1-415; Q9UZC8 1-880)
T1 construct: Mre11 of Pyrococcus abyssi, full length, in the FL complex; Rad50 of Pyrococcus abyssi, full length, in the FL complex; also called Mre11 complex; source: E. coli Rosetta, purified on magnetic beads (details in Materials S1); not shown: His tag, N-terminal, kept
T1 sequence (Q9UZC9 whole entry, chain 1 of 2, the tested form may be a part): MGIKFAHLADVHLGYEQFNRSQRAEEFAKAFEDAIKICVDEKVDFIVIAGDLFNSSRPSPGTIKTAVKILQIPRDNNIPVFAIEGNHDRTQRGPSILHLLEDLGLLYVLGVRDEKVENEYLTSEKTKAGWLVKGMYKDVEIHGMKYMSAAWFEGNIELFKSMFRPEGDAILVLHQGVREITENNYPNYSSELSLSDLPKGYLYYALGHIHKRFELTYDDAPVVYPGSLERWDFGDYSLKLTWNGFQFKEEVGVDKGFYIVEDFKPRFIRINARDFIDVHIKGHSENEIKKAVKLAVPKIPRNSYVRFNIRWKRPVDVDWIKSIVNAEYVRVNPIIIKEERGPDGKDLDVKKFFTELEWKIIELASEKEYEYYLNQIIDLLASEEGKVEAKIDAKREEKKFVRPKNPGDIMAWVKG
T1 sequence (Q9UZC8 whole entry, chain 2 of 2, the tested form may be a part): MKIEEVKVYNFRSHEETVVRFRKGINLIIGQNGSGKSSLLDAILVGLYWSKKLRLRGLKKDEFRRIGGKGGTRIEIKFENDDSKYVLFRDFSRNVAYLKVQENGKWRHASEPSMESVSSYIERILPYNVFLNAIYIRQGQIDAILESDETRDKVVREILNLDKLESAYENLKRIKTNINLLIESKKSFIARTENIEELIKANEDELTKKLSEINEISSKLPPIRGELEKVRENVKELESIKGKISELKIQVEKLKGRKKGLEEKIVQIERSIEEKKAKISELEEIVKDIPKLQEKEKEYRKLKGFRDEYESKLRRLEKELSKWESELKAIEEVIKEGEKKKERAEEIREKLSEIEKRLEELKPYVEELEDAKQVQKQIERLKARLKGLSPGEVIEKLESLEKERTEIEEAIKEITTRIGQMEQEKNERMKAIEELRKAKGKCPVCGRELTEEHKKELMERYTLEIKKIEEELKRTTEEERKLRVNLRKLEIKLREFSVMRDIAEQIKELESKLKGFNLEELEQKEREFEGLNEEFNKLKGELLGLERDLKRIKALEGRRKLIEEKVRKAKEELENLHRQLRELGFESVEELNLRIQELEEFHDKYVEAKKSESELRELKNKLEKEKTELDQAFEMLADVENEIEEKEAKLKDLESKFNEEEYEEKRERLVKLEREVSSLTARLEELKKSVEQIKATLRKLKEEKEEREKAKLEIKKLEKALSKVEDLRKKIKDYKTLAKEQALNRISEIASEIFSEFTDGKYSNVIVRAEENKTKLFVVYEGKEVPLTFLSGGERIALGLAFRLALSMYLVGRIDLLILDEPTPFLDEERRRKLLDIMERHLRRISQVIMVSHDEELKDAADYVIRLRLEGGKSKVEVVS
Experiment: pull-down; 10 ug HIS fusion Mre11/Rad50 immobilised on Co2+ magnetic beads, with or without DNase I treatment, incubated with 0.5 ug PCNA 1 h at room temperature in TrisHCl 20 mM pH 8, NaCl 150 mM, DTT 1 mM with BSA; Western blot with anti-PCNA and anti-HisTag
Settings: both partners purified

- binding result: binds
B1: purified PCNA (prey of the Mre11/Rad50 pull-down) (natural protein, Pyrococcus abyssi, UniProt Q9UYX8 1-249, looked up)
chain: MPFEIVFEGAKEFAQLIETASRLIDEAAFKVTEEGISMRAMDPSRVVLIDLNLPASIFSKYEVDGEETIGVNMDHLKKVLKRGKAKETLILRKGEENFLEISLQGTATRTFKLPLIDVEEIEVDLPELPFTAKVVILGDVIKEAVKDASLVSDSMKFIAKENEFTMRAEGETQEVEVKLTLEDEGLLDIEVQEETKSAYGISYLSDMVKGLGKADEVTIKFGNEMPMQMEYYIRDEGRLIFLLAPRVEE
notes: it was the prey on Co2+ beads and was detected with anti-PCNA, so it is kept apart from m1; source: purified
